Numbering of substitutions follows the chain as printed.
Legend:
Assay in all cases: cell-based or functional assay
[1] = molecular target: T1, IL-18 polypeptide of SEQ ID NO: 1 (native sequence, human IL-18 37-193) (human, UniProt Q14116 37-193)
T1 sequence: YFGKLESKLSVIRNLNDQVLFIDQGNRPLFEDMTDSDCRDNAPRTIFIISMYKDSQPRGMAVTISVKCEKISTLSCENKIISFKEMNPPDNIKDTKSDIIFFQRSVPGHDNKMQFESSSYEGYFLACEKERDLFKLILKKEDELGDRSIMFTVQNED

[2] = molecular target: T2, Modified IL-18 polypeptide of SEQ ID NO: 22 (E06K, K53A, C38S, C68S, C76S, C127S, K70C) (human, UniProt Q14116 37-193)
T2 chain: T1 sequence with E6K, C38S, K53A, C68S, K70C, C76S, C127S

[3] = molecular target: T3, Modified IL-18 polypeptide of SEQ ID NO: 71 with a 30 kDa PEG attached at residue C68 (E6K, C38S, K53A, … (human, UniProt Q14116 37-193, 30 kDa PEG on Cys 68 (30 kDa DBCO-polyethylene glycol clicked to a bromoacetamido-PEG5-azide linker on the cysteine)))
T3 chain: T1 sequence with E6K, C38S, K53A

[4] = molecular target: T1, IL-18 polypeptide of SEQ ID NO: 1 …; remark: listed apart in the source
[5] = molecular target: Modified IL-18 polypeptide of SEQ ID NO: 21 (K53A, T63A) (human, UniProt Q14116 37-193)
[6] = molecular target: Modified IL-18 polypeptide of SEQ ID NO: 4 (K53A) (human, UniProt Q14116 37-193)
[7] = molecular target: T4, Modified IL-18 polypeptide of SEQ ID NO: 10 (E06K, K53A, S55A, T63A) (human, UniProt Q14116 37-193)
T4 chain: T1 sequence with E6K, K53A, S55A, T63A

[8] = molecular target: Modified IL-18 polypeptide of SEQ ID NO: 20 (E06K, T63A) (human, UniProt Q14116 37-193)
[9] = molecular target: Modified IL-18 polypeptide of SEQ ID NO: 6 (E06K) (human, UniProt Q14116 37-193)
[10] = molecular target: Modified IL-18 polypeptide of SEQ ID NO: 7 (E06K, K53A) (human, UniProt Q14116 37-193)
[11] = molecular target: T5, Modified IL-18 polypeptide of SEQ ID NO: 18 (E06K, K53A, T63A) (human, UniProt Q14116 37-193)
T5 chain: T1 sequence with E6K, K53A, T63A

[12] = molecular target: T6, Modified IL-18 polypeptide of SEQ ID NO: 16 (C38S, C68S, C76S, C127S, K70C) (human, UniProt Q14116 37-193)
T6 chain: T1 sequence with C38S, C68S, K70C, C76S, C127S

[13] = molecular target: Modified IL-18 polypeptide of SEQ ID NO: 9 (K53A, S55A) (human, UniProt Q14116 37-193)
[14] = molecular target: T7, Modified IL-18 polypeptide of SEQ ID NO: 2 (E06K, K53A, S55A) (human, UniProt Q14116 37-193)
T7 chain: T1 sequence with E6K, K53A, S55A

[15] = molecular target: T8, Modified IL-18 polypeptide of SEQ ID NO: 23 (K53A, T63A, C38S, C68S, C76S, C127S, K70C) (human, UniProt Q14116 37-193)
T8 chain: T1 sequence with C38S, K53A, T63A, C68S, K70C, C76S, C127S

[16] = molecular target: Modified IL-18 polypeptide of SEQ ID NO: 5 (S55A) (human, UniProt Q14116 37-193)

B1: Fc fused human IL-18BP isoform a (IL-18BPa) (Fc fusion, UniProt O95998 31-194, looked up, not shown: a dimerising Fc or GST)
chain: TPVSQTTTAATASVRSTKDPCPSQPPVFPAAKQCPALEVTWPEVEVPLNGTLSLSCVACSRFPNFSILYWLGNGSFIEHLPGRLWEGSTSRERGSTGTQLCKALVLEQLTPALHSTNFSCVLVDPEQVVQRHVVLAQLWAGLRATLPPTQEALPSSHSSPQQQG
[1]
  IC50 (read off the curve); IFNγ production by NK-92 cells stimulated with IL-18 WT: ~1 nM
[2]
  IC50 (nM), IL-18BPa inhibition of IFNγ release by NK-92 cells (1 nM IL-18 analyte): 23.5 nM
[3]
  IC50 (nM), IL-18BPa inhibition of IFNγ release by NK-92 cells (1 nM IL-18 analyte): 0.66 nM
[4]
  IC50 (nM), IL-18BPa inhibition of IFNγ release by NK-92 cells (1 nM IL-18 analyte): 1.47 nM
[5]
  IC50 (nM), IL-18BPa inhibition of IFNγ release by NK-92 cells (1 nM IL-18 analyte): 18.2 nM
[6]
  IC50 (nM), IL-18BPa inhibition of IFNγ release by NK-92 cells (1 nM IL-18 analyte): 27.3 nM
[7]
  IC50 (nM), IL-18BPa inhibition of IFNγ release by NK-92 cells (1 nM IL-18 analyte): 1060 nM
[8]
  IC50 (nM), IL-18BPa inhibition of IFNγ release by NK-92 cells (1 nM IL-18 analyte): 47.1 nM
[9]
  IC50 (nM), IL-18BPa inhibition of IFNγ release by NK-92 cells (1 nM IL-18 analyte): 7.79 nM
[10]
  IC50 (nM), IL-18BPa inhibition of IFNγ release by NK-92 cells (1 nM IL-18 analyte): > 703 nM
[11]
  IC50 (nM), IL-18BPa inhibition of IFNγ release by NK-92 cells (1 nM IL-18 analyte): > 1000 nM
[12]
  IC50 (nM), IL-18BPa inhibition of IFNγ release by NK-92 cells (1 nM IL-18 analyte): 0.114 nM
[13]
  IC50 (nM), IL-18BPa inhibition of IFNγ release by NK-92 cells (1 nM IL-18 analyte): 37.3 nM
[14]
  IC50 (nM), IL-18BPa inhibition of IFNγ release by NK-92 cells (1 nM IL-18 analyte): 229 nM
[15]
  IC50 (nM), IL-18BPa inhibition of IFNγ release by NK-92 cells (1 nM IL-18 analyte): > 1000 nM
[16]
  IC50 (nM), IL-18BPa inhibition of IFNγ release by NK-92 cells (1 nM IL-18 analyte): 4.46 nM

Reference: patent US20220056091A1 (BRIGHT PEAK THERAPEUTICS, published 2022)
